Values joined by “and” are separate entries in the source; they are usually repeats but may differ in a detail not shown here. Equal entries are not always repeated.
Tests used:
EGFR = molecular target: T1, EGFR (Homo sapiens, UniProt P00533); test: EGFR phosphorylation in NCI-H596 hu-HGF-Tg-SCID xenograft tumors (IP/immunoblot); type: in vivo, mouse xenograft; details: MetMAb 30 mg/kg 24 h, erlotinib 150 mg/kg 6 h prior to harvest, average of 5 animals
T1 construct: endogenous in cells; host or cells: NCI-H596 (human NSCLC) cells grown as xenograft tumours in hu-HGF-Tg-SCID mice; tumour lysate, IP with MI-12-1 and immunoblot
Experimental: Tumors were allowed to grow to 200-300 mm^3 prior to treatment. Dosing was performed as described in Table 8. Briefly, MetMAb (30 mg/kg) or MetMAb buffer was dosed at time zero hours (0 hr) and methylcellulose tween vehicle (MCT) or erlotinib (150 mg/kg) was dosed at time 18 hours (18 hr). Mice were euthanized and tumors and plasma collected at time 24 hours (24 hr). Tumors were snap frozen in liquid nitrogen and then kept at −70° C. until they were processed for immunoprecipitation and immunoblotting.
Immunoprecipitations and Immunoblotting: To process tumors for protein analysis, tumors were first homogenized using a glass dounce with lysis buffer (Cell Signaling Technology, Inc., Danvers, Mass.), supplemented with 1 mM PMSF, additional protease inhibitor cocktail, and phosphatase inhibitor cocktail I and II (Sigma, Inc., St. Louis, Mo.). Lysates were incubated on ice for one hour and then centrifuged at 14,000×g for five minutes and supernatants collected. Protein concentrations were determined using the BCA™ Protein Assay Kit (Pierce, Inc., Rockford, Ill.) and samples were immunoblotted. […] Samples were then analyzed by SDS-PAGE and immunoblotting. […] Immunoblots were imaged and phospho-protein levels were quantified and normalized to total protein levels (e.g. pEGFR over total EGFR) using an Odyssey imager (LI-COR Biosciences, Lincoln, Nebr.). […]

NCI-H596 cell line = NCI-H596 cell line in vitro; cited from earlier work

B1: MetMAb: Anti-c-met monovalent monoclonal antibody MetMAb (rhuOA5D5v2) (WO2007/063816) (antibody, chains of the INN, looked up, V domains shown)
VH: EVQLVESGGGLVQPGGSLRLSCAASGYTFTSYWLHWVRQAPGKGLEWVGMIDPSNSDTRFNPNFKDRFTISADTSKNTAYLQMNSLRAEDTAVYYCATYRSYVTPLDYWGQGTLVTVSS
VL: DIQMTQSPSSLSASVGDRVTITCKSSQSLLYTSSQKNYLAWYQQKPGKAPKLLIYWASTRESGVPSRFSGSGSGTDFTLTISSLQPEDFATYYCQQYYAYPWTFGQGTKVEIK
modifications: one-armed
In the case of B1, the “pEGFR/total EGFR (phosphorylation of EGFR)” value (EGFR) is given as 62% (+/−21.6%) % of vehicle control and 62 (±21.6) % of vehicle control and the HGF-driven proliferation (NCI-H596 cell line) is given as “blocks HGF-driven proliferation”.
